Assay: soluble on expression in E. coli; label from the status in PepcDB or PDB records

Q: Which “soluble on expression in E. coli” value does the source give for “MGSDKIHHHHHHAVSETISETAWCLDGFERPTGVNPVIKPLPTKFYCPMREDSVAWEESDTFNPAATIYDGKIVVMYRAEDNSAQGIGSRTSRLGYATSTDGIHFERDTKPAFYPAKDNQAENECPGGTEDPRIAMTEDGTYVLLYTQWNRKVPRLAVATSKDLKHWTKFGPAFEKAYNGKFKDEATKSASLVTTLKGDKQVIAKVNGKYFMYWGEKNVYAATSDNLIDWDPLLDENGELLKLFSPRSGYFDSQLTECGPPAILTKDGIVLLYNGKNEPGEKGDTAYPANSYCAGQALFDVNNPTKLIGRLDKPFLQPTDDFEKSGQYPAGTVFVEGLVYYRNKWYLYYGCADSFVAVAVSDKQLNF” here?
A: The value was “not soluble”.

Q: With “MVDMAVTPVALLEASHLHYHVQQQALINDVSLHIASGEMVAIIGPNGAGKSTLLRLLTGYLSPSHGECHLLGQNLNSWQPKALARTRAVMRQYSELAFPFSVSEVIQMGRAPYGGSQDRQALQQVMAQTDCLALAQRDYRVLSGGEQQRVQLARVLAQLWQPQPTPRWLFLDEPTSALDLYHQQHTLRLLRQLTRQEPLAVCCVLHDLNLAALYADRIMLLAQGKLVACGTPEEVLNAETLTQWYQADLGVSRHPESALPQIYLRQ” as the sequence, how does the “soluble on expression in E. coli” value read?
A: Its value is “not soluble”.

Q: For “MGSDKIHHHHHHMIYKVISKDEFRNFVDALVRANTSYGPRQVDTDRNGEPIYQFMPVSSASEIAFDYTVTTSSAKHFLMPFREELSKFSFRDGDWDQEVKYDAPPIVLVGLRPCDINAINILDEVMLKGPYPSPYYLARRKNTFIIGMDHLPLPDCFCRSMNRHTTDHGFNLFASDIGESYFLSINSSKAFNFLKEFETTEPTEEDDCKLIERRKLIKQSFKTNVEVTGLPVFLDLEFDSPIWKKWGDKCLNCGSCAMVCPTCYCYNVEEHFETNLESSSRQRRLYSCNLIDFAEVTGGHNFRPKNGDRLKYRYYHHYRGFAVNDNQQICVGCNRCGRACLAGINPKDVINDLRLEKESCVTCVSPSPAKT”, which “soluble on expression in E. coli” value is on record?
A: The value was “not soluble”.

Q: For “MGSDKIHHHHHHMIILVGGEKGGSGKSCLAQNIAVFLTVECGASVIMVDCDPQRTTSDWIQARNNNGTLASINCVQLYGKIRNDLLSLEQHYDYVIVDCGGQDNLALRATMSVASHVLMPLRPKRRDLKTVSHMDDIVATCMMINPKMRASFVITQCPSLPNQANRIFEAKEVCKTYDINVLDAITYSRNIYDDSEESGLSVMETQPKGKAAEEIRSIACEMLQASSATEIRNRLAEKQMDKLRGNYGSGRSQEKLYAV”, which “soluble on expression in E. coli” value is on record?
A: The value was “not soluble”.

Q: For “MFFAIILLVHTILLPSTLLYQCATAKRPANQRKSQRSTKSRKSSRRSRRRNGRSRKSSRSGKSSRSSKSGRSSKSSNSTKTTGSKSSKSSRSQRSNKSNKMVTNPKGFSDRKIRAAILADQKAAADAVKSQKLSSNNSSEKQLNAHNDNKISYVNVRVIPHELIFPPIGGMKHVRVKNSTGKPIAYMAKCSDNILFRINPVYGIIDTDRDAQINILRENGAAKHDKLVIVTTVHHDANKTAQHTFSQLNQGIENPNYNVNVVPLLTQ”, which “soluble on expression in E. coli” value is on record?
A: Its value is “soluble”.

Q: Which “soluble on expression in E. coli” value does the source give for “MSLGLSFFSKHLPIQEGQPWALKTPADIISTVEFNHTGELLATGDKGGRVVIFQREPESKNAPHSQGEYDVYSTFQSHEPEFDYLKSLEIEEKINKIKWLPQQNAAHSLLSTNDKTIKLWKITERDKRPEGYNLKDEEGKLKDLSTVTSLQVPVLKPMDLMVEVSPRRIFANGHTYHINSISVNSDCETYMSADDLRINLWHLAITDRSFNIVDIKPANMEDLTEVITASEFHPHHCNLFVYSSSKGSLRLCDMRAAALCDKHSKLFEEPEDPSNRSFFSEIISSVSDVKFSHSGRYMLTRDYLTVKVWDLNMEARPIETYQVHDYLRSKLCSLYENDCIFDKFECAWNGSDSVIMTGAYNNFFRMFDRNTKRDVTLEASRESSKPRAVLKPRRVCVGGKRRRDDISVDSLDFTKKILHTAWHPAENIIAIAATNNLYIFQDKVNSDMHEGHHHHHH” here?
A: The value was “not soluble”.

Q: For “MGSSHHHHHHSSGLVPRGSHMAPTEIKPEDDILGRARVRDTPELEAYYDDLAKIETGALWTVANDIEPWEPTPKSAPVHWKWSDLRREVLRAIDLVRPEDAGRRVVYLRNPQRKDVSAACGWLFSGIQTMKAGERAGAHRHAASALRFIMEGSGAYTIVDGHKVELGANDFVLTPNGTWHEHGILESGTECIWQDGLDIPLTNCLEANFYEVHPNDYQTTDIPLNDSPLTYGGPALLPQLDKWDKPYSPLLKYSWEPTYEALLNYAKASDGSPYDGLILRYTNPQTGGHPMLTMGASMQMLRPGEHTKAHRHTGNVIYNVAKGQGYSIVGGKRFDWSEHDIFCVPAWTWHEHCNTQERDDACLFSFNDFPVMEKLGFWAEQALEDNGGHQIVAD”, which “soluble on expression in E. coli” value is on record?
A: The value was “soluble”.

Q: For “KNKKVILFAPTFRGNGHRTAHYPFFKINFARLASYCEEHQATVLFKMHPFVRNKLNIPAIYSKYFLDISNYREVNDVLFITDILISDYSSLIYEFSVFKKPMLFYAFDLEDYIYTRDFYEPYETFVPGKIVKIFDELILALENNDFELEKVKPFLNKNFKYKDGKSSERLVKDLFNKFFQ”, which “soluble on expression in E. coli” value is on record?
A: The value was “not soluble”.

Q: With “EAAFWGASNELLHDPTMIKEGSSWYALGTGLTEERGLRVLKSSDAKNWTVQKSIFTTPLSWWSNYVPNYGQNQWAPDIQYYNGKYWLYYSVSSFGSNTSAIGLASSTSISSGGWKDEGLVIRSTSSNNYNAIDPELTFDKDGNPWLAFGSFWSGIKLTKLDKSTMKPTGSLYSIAARPNNGGALEAPTLTYQNGYYYLMVSFDKCCDGVNSTYKIAYGRSKSITGPYLDKSGKSMLEGGGTILDSGNDQWKGPGGQDIVNGNILVRHAYDANDNGIPKLLINDLNWSSGWPSY” as the sequence, how does the “soluble on expression in E. coli” value read?
A: The value was “soluble”.

Q: For “MKTKEDMQELYFPTPKLIEWENGVRQYSTVRGDTEVLMSYVPPHTNVEPHQHKEVQIGMVVSGELMMTVGDVTRKMTALESAYIAPPHVPHGARNDTDQEVIAIDIKRLKADETYTSPEDYFLDIFKTRDLLPGMEVTFFVEDWVEIMLAKIPGNGGEMPFHKHRNEQIGICIGGGYDMTVEGCTVEMKFGTAYFCEPREDHGAINRSEKESKSINIFFPPRYNRAKAKKMKADELEHHHHHH”, which “soluble on expression in E. coli” value is on record?
A: The value was “soluble”.

Q: Which “soluble on expression in E. coli” value does the source give for “MGSDKIHHHHHHVLVVVPEILDPKVDLVFKKVFGSQENKSILLSFLNAVLNWTGEQKIVDVKILNPYLEPESIDDSVGILDIKLQLENDDLVDVEMQIGNLGNMERRSTYYTCRMFGDQNISGGRYQDLNRVIAINVLDFTRIKNIERYHTKFRLRETQENIDLTDAIEIHFIELPKLRQEMASYTDPLDRWVVFLKGGWNMELLDRLAKEDPAIGQAKQVLEQMASNPRERELYELRRKAILDRNSALYEAKMEGKAEGKAEGQAIILLRLLKKKFGFMPVEMENRVMSMSAEKLQELAEAIFDLGTIDELNNFISR” here?
A: Its value is “not soluble”.

Q: For “MVDRFGDVLREWRQLRRMSQMDLGLSAGVSPRHISFLESGRALPSRGMVLRLCDELEVPGGARNRWLTSAGLAPAYHSRNGDAPEMAPLTQAVDWMLSRHAPYPAMAVDRHWRLKTMNRPARAMFAATGLGAGDGLIDALLDNPALAAALENRDEVERLSLTRLRTELAHFGRDPVLEQAVARLAERVARQPGAADAPMPAVIPARYRLGEAVLSFFTTITQFGATGDIAMSELRIEMFFPADDATRQMVEALWGNATPGN”, which “soluble on expression in E. coli” value is on record?
A: Its value is “not soluble”.

Q: Which “soluble on expression in E. coli” value does the source give for “MAHHHHHHMDREDDKKNKFPFTQNNCVVVRSKLDRKNISKMKLSDEQVTANEEITKSVLLKEVNMQDAYDQIGKNANDFSRIYNLFERELLNKSNIKNVYINGIKKNIIVDDGHMKTKVEKKSLKLIDEIHLTYKKRPIILIEKESSNHIINRNNVESFFVHNCLDNSGANRKGTHAASGGGEGAVTGPYNSIPIIYKMFNKKKSIKFSFIENDQISKLTETDWKCVIAVIIKSKESLKDILNEYPFEIPTALFQPFKSFFFMFNDVIIPSDLLTGGNVDIIRLSRDKRKEDYLAVNKFWTNIEKFILQRRDKSCYTRKKKF” here?
A: Its value is “not soluble”.

Q: With “MPRPKILKRATVQPSAAVPVKKSTPEKEGSRQKKTNGKENASRNLQSNLEEDLEQLGFEDETVSMAQSAIENYFMQGKSASERMNNAKSRRGRRAGNGNTEEIEEDDEISNAITDFTKCDLPGLRNYITKKDNTEFEKRLEHLADNDFGKWKLYLAAGFNILLHGVGSKRDVLTEFENELSDYTYMRVDARKDGLNVKVLLGAINENMKLNCNVKRGQSTISWARSIRRKMNSQQLILIIDNIEAPDWRSDQEAFCELLENRDSVKLIATVDHIYSTFIWNSRQLSSLSFVHITINTFEIPLQELMTGDSRLLGLDARSNQSSHTMSSLDVFWKSLAVNSQKLFRLFFQMYFDTKKPVKFWDLFNAAKDDFIASTDAALRTQLVEFKDHRVLKWTRGDDGNDQLSGIVELRLVTEFLESKNMPLDEKKDE” as the sequence, how does the “soluble on expression in E. coli” value read?
A: The value was “not soluble”.

Q: For “MGSDKIHHHHHHMDFWKCPHCGFVVSKTHQEMTQDQWSQLNSSWHHNFENNRESRTTNQPPYADQALVLAILKENDILDLDDGLDYAAGYGTFSKCLKKYFNIGIRIFDRYVHSSDEGMRYVAQKELSRYKLVINSAMFEHVLNRHALDEVNGLVKDDGVLMLHTVVCERIPKDPGWFYIDTMVHTALHTNKSMSILMDQWGYGASIYSPQAKSWFLFKRDNPLIDDLEAKVAGINHELQTTYLHYKRGFVDYWKGF”, which “soluble on expression in E. coli” value is on record?
A: Its value is “not soluble”.

Q: Which “soluble on expression in E. coli” value does the source give for “MGSDKIHHHHHHMDFFQSKFLYGKKQSQFGIFRMPRNTTNCPVVVTIHGGFWKAEYGLEEIVPLDEDLVRRGYATWNVEYRRIGENGGGWPGTFSDVIDAVNYLAFLKEDFPLDLSRVVILGHSAGGHLALWLASRWNTKQADQMENVLHTSIKAIISLAGVSNLEEMWRIESKGKTSNNVSSFLGGTPEEASDRYHLASPYELLPLHVRQILVHGGSDQEVPLDLTLGYYKKAIRLADDVGLISDSRSDHFDLIDPFSSIWLSSADSLKNIINS” here?
A: The value was “not soluble”.

Q: Which “soluble on expression in E. coli” value does the source give for “MLVFISNSRLSESEVQKLRDKHLIDDFIQRENKGYDFAAWHDGMEFVGFENLKQYDSVTVMNDTCFGPLWDMAPIYDNYESNPNVDFWGMTNHQGIKAGDIYIHEHLQSYFISFKKRLVESSVFQKFWKSVESFEDVQKVIDNYETLYTKKFRDAGFNYESILNTIPLNDKFFHSNFTIHYPHVLLDTGVPFIKVKTFDLTQHLAPYLLKEIEKRTDYPVELILSHMSDMSLPTPPYLLDRKVIEKSSQTYSDTKKIAVHLHTYYVDLLEDFLKQFENFHFTYDLFLTTDSEDKKAEIQSILDKNGKVARIFITGNRGRDVIPMLKLKDELSAYDYIGHFHTKKSPEYPYWVGDSWRNELFSMLIQPADNIIANLERDDRLGLVIADIPSFFRYTKIVDPWNENRFAEGMNDLWERMDLGRDIDFDKMNTFIMSYGTFIWFKYDALKPLFDLDLQDEEIPAEPIPQHTILHSIERILVYLAWARRYDYAIAKNDIYITPFVDNVVLNIRPDTLPNTYINFDNIGGIKGALKYIIVGPLEHHHHHH” here?
A: The value was “not soluble”.

Q: With “GMWWYSSIKYSADKVLLDTTRMYYYFINRTPRMEIGRMIAVLSGSFEFSKQYNKEIQERETDDYEVPRLMKQIAGVNDKGKEQPLSQPYALKSRVLLHAYLSRLPLESQNDALEEDQSYIITRILRFVEEMVNCSQNLMNYSQHTKISIETFDNLLKLQPMFVQALWQKNSPLLQLPHITDYNLQHLRKKRVFSCHDLAVMDAETRRSVLRSLSNEEYRDVMVVLSMMPRLQIETKTVVEGEDDKHELTAGCVVTLKVTMRRSRLIDPQEAGLADQYKKYAEDGGDDELEASEAPEEAAATVEEEEVKKRKPWEKNKPKQKKKKAQGQGQKKFVKKNAPASPDTEKALKEE” as the sequence, how does the “soluble on expression in E. coli” value read?
A: The value was “not soluble”.

Q: Which “soluble on expression in E. coli” value does the source give for “MAHHHHHHMGGAHNEGVQDGGAQDATTLYDELYLLFDEYIVRNCKQPNTYESLFCKKEFVQFAKLHGTSVVVTSPKKEIKNKDEIIDELIYAFKLFAKYTSMCDFFSKNEEVDDINTIYLKFLLIPYILGVLCYETISMEIRSDRLKEAKLYFGEFINVVNVYKIAPVEDYLLDEGGEVNQAMNRRNIKVKRAKDEKKLQDFYDDMIKMNVKKGSSQNYNHLCFADHMEEEQIREIYLSLIKCKCLQTLNMMDLIDTEIEVLEMRNRQQVQDKQHQNGKPTQGTKDTHDGQPPHQNKHPKDGIKKPWLFTIKKNMPLADMTQMRNYYRDLVFTPAHNLPTISLEECAKIEMEYALKGEGMAPRSEEERRGNPKSGTIKGAAQNGTDDEEDYEKSSKEESEKELMDREWDDWKDMHQKGIGNKNRNVA” here?
A: Its value is “soluble”.

From the DeepSol protein solubility set
